Patent US20230111237A1 (CARLSBERG A S, published 2023)
Numbering of substitutions follows the chain as printed. Names may count otherwise.

T1: recombinant wild type Hordeum vulgare limit dextrinase (wt HvLD) (Hordeum vulgare)
T1 chain: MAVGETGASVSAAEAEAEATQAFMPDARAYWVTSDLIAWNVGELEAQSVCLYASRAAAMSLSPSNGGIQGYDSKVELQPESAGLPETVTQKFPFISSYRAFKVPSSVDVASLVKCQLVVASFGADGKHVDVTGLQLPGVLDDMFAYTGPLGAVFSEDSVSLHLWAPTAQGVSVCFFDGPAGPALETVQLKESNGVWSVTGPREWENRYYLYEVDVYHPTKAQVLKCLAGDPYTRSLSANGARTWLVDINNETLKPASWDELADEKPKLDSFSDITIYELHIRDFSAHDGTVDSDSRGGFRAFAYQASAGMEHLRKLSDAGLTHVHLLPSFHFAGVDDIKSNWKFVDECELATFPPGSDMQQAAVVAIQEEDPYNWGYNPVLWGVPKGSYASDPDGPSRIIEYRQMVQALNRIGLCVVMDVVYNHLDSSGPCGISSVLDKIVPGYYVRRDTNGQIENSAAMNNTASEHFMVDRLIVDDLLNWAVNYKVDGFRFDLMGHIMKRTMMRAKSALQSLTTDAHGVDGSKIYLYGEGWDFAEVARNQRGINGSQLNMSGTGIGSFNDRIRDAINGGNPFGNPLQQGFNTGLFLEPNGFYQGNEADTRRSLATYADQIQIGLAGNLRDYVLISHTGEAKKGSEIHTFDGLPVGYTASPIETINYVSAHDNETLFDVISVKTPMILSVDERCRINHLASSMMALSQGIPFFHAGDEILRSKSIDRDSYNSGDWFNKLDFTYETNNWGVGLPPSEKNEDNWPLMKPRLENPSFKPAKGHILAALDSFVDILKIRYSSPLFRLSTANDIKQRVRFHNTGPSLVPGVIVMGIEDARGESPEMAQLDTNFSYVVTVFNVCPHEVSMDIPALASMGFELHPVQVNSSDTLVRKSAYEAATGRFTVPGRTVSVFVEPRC

B1: wild type Hordeum vulgare limit dextrinase inhibitor (wt HvLDI), recombinant (other)
chain: TLESVKDECQPGVDFPHNPLATCHTYVIKRVCGRGPSRPMLVKERCCRELAAVPDHCRCEALRILMDGVRTPEGRVVEGRLGDRRDCPREEQRAFAATLVTAAECNLSSVQEPGVRLVLLADG
B2: HvLDI mutant P60L, recombinant (other)
chain: B1 chain with P36L
B3: HvLDI mutant E68K, recombinant (other)
chain: B1 chain with E44K
B4: HvLDI mutant P60S, recombinant (other)
chain: B1 chain with P36S
B5: HvLDI mutant V66M, recombinant (other)
chain: B1 chain with V42M

Target: T1, recombinant wild type Hordeum vulgare …
Assay: cell-based or functional assay

First: B1
Second: B2
The “IC50 (µM) of inhibition of HvLD activity (PullG6 assay, 1.5 µM HvLD)” value (“IC50 (µM) of inhibition of HvLD activity” for short) of the first is 8.5-fold lower: 1.56 µM for the first, 13.2 µM for the second.

B3 and B4 are within 1.5-fold of each other in “IC50 (µM) of inhibition of HvLD activity” value: 7.1 µM for the first, 10.1 µM for the second.

In the case of B5, the “IC50 (µM) of inhibition of HvLD activity” value is reported as 15.3 µM.
